Measurements as given in publication PMC9891502.

molecular target: CMV gB ectodomain protein; assay: ELISA; details: parent: 171.7

| Substance | EC50 |
| --- | --- |
| TRL345 unmutated common ancestor (UCA) mAb L:N53D | 0.0197 µg/mL |
| TRL345 unmutated common ancestor (UCA) mAb H:Y52aN; L:S30G; L:N53D | 0.0077 µg/mL |
| TRL345 unmutated common ancestor (UCA) mAb H:Y52aN | 0.0851 µg/mL |
| TRL345 unmutated common ancestor (UCA) mAb H:Y52aN; L:N53D | 0.0094 µg/mL |
| TRL345 unmutated common ancestor (UCA) mAb L:S30G | 0.0127 µg/mL |

molecular target: full-length gB (Towne strain) expressed on HEK293T cells (UniProt P13201); assay: flow cytometry on cells; details: three-point, 10-fold mAb serial dilution starting at 0.1 μg/mL; parent: 94

| Substance | other: AUC |
| --- | --- |
| TRL345 unmutated common ancestor (UCA) mAb H:A33N; H:Y52aN; L:N53D | 143 AUC |
| TRL345 unmutated common ancestor (UCA) mAb L:N53D | 90 AUC |
| TRL345 unmutated common ancestor (UCA) mAb H:Y52aN; L:S30G | 124 AUC |
| TRL345 unmutated common ancestor (UCA) mAb H:A33N; H:Y52aN; L:S30G | 144 AUC |
| TRL345 unmutated common ancestor (UCA) mAb H:A33N; L:S30G | 207 AUC |
| TRL345 unmutated common ancestor (UCA) mAb L:S30G; L:N53D | 107 AUC |
| TRL345 unmutated common ancestor (UCA) mAb H:A33N; H:Y52aN | 140 AUC |
| TRL345 unmutated common ancestor (UCA) mAb H:A33N; L:N53D | 180 AUC |
| TRL345 unmutated common ancestor (UCA) mAb H:Y52aN; L:N53D | 109 AUC |
| TRL345 unmutated common ancestor (UCA) mAb H:A33N; L:S30G; L:N53D | 138 AUC |
